Laboratory results from publication PMC9865183.

Experiments:
[1] = target: rituximab (human monoclonal IgG1) (human); experiment: ITC; Z3 titrated into rituximab in the sample cell; PBS, pH 7.4, 25 °C; MicroCal PEAQ-ITC; triplicate
[2] = target: rituximab (human monoclonal IgG1) (human); experiment: differential scanning fluorimetry; equimolar (1:1) mixture of rituximab and Z3 against rituximab alone; SYPRO orange, 20 mM Tris, pH 7.4
[3] = target: rituximab (human monoclonal IgG1) (human); experiment: SPR; rituximab covalently immobilised (NHS/EDC) on a CM5 chip, Biacore X100; Z3 flowed over in HBS-EP+ (10 mM HEPES, 150 mM NaCl, 3 mM EDTA, 0.005% Tween-20, pH 7.4); 1:1 Langmuir model; KD calculated as koff/kon
[4] = target: linear Z3 (linear trimer of the Staphylococcus aureus protein A Z domain) (Staphylococcus aureus); experiment: AUC; sedimentation velocity at 40,000 and 60,000 rpm, PBS (Dulbecco), 20 °C, 220 nm; molar mass transformation

Chain of rituximab (human monoclonal IgG1) (human) (heavy, as listed by the source, chain 1 of 2): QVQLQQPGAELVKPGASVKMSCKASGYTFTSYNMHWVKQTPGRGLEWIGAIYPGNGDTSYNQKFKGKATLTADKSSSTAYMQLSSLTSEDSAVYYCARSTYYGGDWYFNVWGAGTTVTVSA
Chain of rituximab (human monoclonal IgG1) (human) (light, as listed by the source, chain 2 of 2): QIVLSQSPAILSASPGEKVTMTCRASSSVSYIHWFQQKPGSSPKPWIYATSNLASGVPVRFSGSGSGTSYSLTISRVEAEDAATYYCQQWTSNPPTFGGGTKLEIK

Substance	Kd [1]	dH [1]	stoichiometry N (IgG1 molecules per cyclic Z3 molecule) [1]	increase of the lower transition temperature of rituximab [2]	upward shift of the 81.3 °C transition of rituximab [2]	Kd [3]	koff [3]	kon [3]	stoichiometry N (IgG1 molecules per linear Z3) [1]	stoichiometry N [4]
cyclic Z3 (intein-cyclized trimer of the Staphylococcus aureus protein A Z domain) (designed binder)	7.6 nM	-32.7 kcal/mol	2.1	4.9 °C	1.5 °C	3.3 nM	0.00073 s⁻¹	220000 M⁻¹ s⁻¹		
linear Z3 (linear trimer of the Staphylococcus aureus protein A Z domain) (designed binder)	2.8 nM	-33 kcal/mol		4.9 °C	3.3 °C	2.9 nM	0.00092 s⁻¹	310000 M⁻¹ s⁻¹	1.9	< 3
